Reference: paper doi:10.1101/2023.02.21.529347v1

Tested on: CC1(C)[C@H]2CC=C(C=O)[C@@H]1C2
Assay: purified protein
Settings: co-substrate F420H2; apparent value; fit with substrate inhibition

In the case of “MSMEG_2850 (Mycolicibacterium smegmatis MC2 155; Y124M)”, the Km is reported as 260 ± 20 µM and the kcat is reported as 0.65 ± 0.018 s⁻¹.
